From patent publication US20190271705A1 (UNIVERSITY OF WESTERN ONTARIO, published 2019)

B1: T8V/S10A/K15L variant Fyn SH2 domain (designed binder)
chain: MKIEEHHHHHHSSGRENLYFQGGAAQPAAPVDSIQAEEWYFGKLGRKDAERQLLSFGNPRGTFLIRESETVKGAYALSIRDWDDMKGDHVKHYLIRKLDNGGYYITTRAQFETLQQLVQHYSERAAGLSSRLVVPSHKGAAA
B2: A8V/S10A/K15L variant Grb2 SH2 domain expressed as a GFP-fusion protein in HEK 293 cells (designed binder)
chain: MKPHPWFFGKIPRAKAEEMLSKQRHDGAFLIRESESVPGDFALSVKFGNDVQHFLVLRDGAGKYFLWVVKFNSLNELVDYHRSTSVSRNQQIFLRDIEQVPQQP
notes: also called TrM Grb2 SH2 domain; 8V/10A/15L-substituted Grb2 SH2 domain; not shown: GFP encoded by the pEGFPC2 vector (Clontech)
B3: wild-type Fyn SH2 domain expressed as a GFP-fusion protein in HEK 293 cells (other, human, UniProt P06241 139-249, looked up)
chain: APVDSIQAEEWYFGKLGRKDAERQLLSFGNPRGTFLIRESETTKGAYSLSIRDWDDMKGDHVKHYKIRKLDNGGYYITTRAQFETLQQLVQHYSERAAGLCCRLVVPCHKG
notes: domain: SH2 domain; also called Wt Fyn SH2 domain; Wt; not shown: GFP encoded by the pEGFPC2 vector (Clontech)
B4: T8V/C10A/K15L variant Src SH2 domain expressed as a GFP-fusion protein in HEK 293 cells (designed binder)
chain: DSIQAEEWYFGKITRRESERLLLNAENPRGTFLVRESETVKGAYALSVSDFDNAKGLNVKHYLIRKLDSGGFYITSRTQFNSLQQLVAYYSKHADGLCHRLTTVCPTSK
notes: domain: SH2 domain; also called TrM Src SH2 domain; 8V/10A/15L-substituted Src SH2 domain; not shown: GFP encoded by the pEGFPC2 vector (Clontech)

Assays:
EGFR-pY978 peptide = target: T1, EGFR-pY978 peptide; assay: fluorescence polarization in solution; reference wild-type Fyn SH2 domain
T1 construct: Synthetic pTyr-containing peptide
Experimental: Measurements of fluorescence polarization were conducted by titrating the SH2 domain concentration, while keeping the peptide concentration constant. Kd values were calculated with the GraphPad Prism software, by assuming the one-site binding model (GraphPad Software).

EGF receptor (EGFR) [1] = target: T2, EGF receptor (EGFR) (UniProt P00533 25-1210, tyrosine-phosphorylated in the C-terminal tail (cells treated with EGF and pervanadate); sites not stated); assay: co-immunoprecipitation from HEK 293 cells
T2 construct: Endogenous receptor of HEK 293 cells; detected with an anti-EGFR rabbit polyclonal antibody; also called epidermal growth factor receptor

EGF receptor (EGFR) [2] = target: T2, EGF receptor (EGFR); assay: co-immunoprecipitation from HEK 293 cells, anti-GFP and anti-EGFR antibodies
Experimental: HEK 293 cells were lysed with cold lysis buffer (1% NP-40, 50 mM Tris-HCl pH 7.4, 150 mM NaCl, 2 mM EDTA, 50 mM NaF, 10% Glycerol and protease inhibitor cocktail diluted at 1:1000). After centrifugation at 13,000*g for 15 min, the supernatants were collected. After clearance of the lysate with appropriate pre-immune serum and protein G (Roche), immnuoprecipitation (IP) and immunoblotting (IB) were performed.

Row | Binder | binding result (EGF receptor (EGFR) [1]) | other results
1 | B1 |  | fold affinity increase (Kd[wild-type] divided by Kd[variant]) (EGFR-pY978 peptide): > 1000 fold
2 | B2 | binds | 
3 | B3 |  | binding result (EGF receptor (EGFR) [2]): no binding
4 | B4 | binds | 
